{"source": "paper PMC5663480", "about": "“Structural inhibition of dynamin-mediated membrane fission by endophilin” (eLife, 2017)", "proteins": {"B1": {"name": "Rat endophilinA1 (natural protein, UniProt O35179 1-352, looked up)", "chain": "MSVAGLKKQFHKATQKVSEKVGGAEGTKLDDDFKEMERKVDVTSRAVMEIMTKTIEYLQPNPASRAKLSMINTMSKIRGQEKGPGYPQAEALLAEAMLKFGRELGDDCNFGPALGEVGEAMRELSEVKDSLDMEVKQNFIDPLQNLHDKDLREIQHHLKKLEGRRLDFDYKKKRQGKIPDEELRQALEKFDESKEIAESSMFNLLEMDIEQVSQLSALVQAQLEYHKQAVQILQQVTVRLEERIRQASSQPRREYQPKPRMSLEFATGDGTQPNGGLSHTGTPKPAGVQMDQPCCRALYDFEPENEGELGFKEGDIITLTNQIDENWYEGMLHGQSGFFPINYVEILVALPH", "notes": "Rat endophilinA1, wild type and full-length; source: E. coli, pGEX-6P vector, purified (glutathione Sepharose, PreScission cleavage)"}}, "biological_target": "the molecule itself", "experiment": "cryo-EM structure; 2D class averages of endophilin-only coat on lipid tubules: 11 µM protein, DOPS liposomes (0.5 g/l), GTPase buffer, 30 min room temperature", "data": [{"protein": "B1", "values": [{"measurement": "binding result", "value": "binds"}]}]}
